Drawing on paper PMC6555819, “Comprehensive study of nuclear receptor DNA binding provides a revised framework for understanding receptor specificity”, this text covers binding signal for 31 molecules.

B1: NRC3_random_hg19_295_o1 (dsDNA)
DNA 1: GCGAGGTTGCAGAGATGTTCTCACTAAACATTCGTTGCGATTGACAGCGTAGAATGAAGG
DNA 2: CCTTCATTCTACGCTGTCAATCGCAACGAATGTTTAGTGAGAACATCTCTGCAACCTCGC
B2: NRC3_wobSeed66_DR2_C13A_o1 (dsDNA)
DNA 1: GCAATACAGGGTAACTAGGCCAGAGTAGGTACGAATGCGATTGACAGCGTAGAATGAAGG
DNA 2: CCTTCATTCTACGCTGTCAATCGCATTCGTACCTACTCTGGCCTAGTTACCCTGTATTGC
B3: NRC3_wobSeed90_DR3_A14G_o1 (dsDNA)
DNA 1: GCCATACAGGGTCGGCTAGGCCAGAGTAGGGACGGCGCGATTGACAGCGTAGAATGAAGG
DNA 2: CCTTCATTCTACGCTGTCAATCGCGCCGTCCCTACTCTGGCCTAGCCGACCCTGTATGGC
B4: NRC3_random_hg19_148_o1 (dsDNA)
DNA 1: GCTGTGTCACCATGAGCAATCCAACCAGGCATCCCAGCGATTGACAGCGTAGAATGAAGG
DNA 2: CCTTCATTCTACGCTGTCAATCGCTGGGATGCCTGGTTGGATTGCTCATGGTGACACAGC
B5: NRC3_random_hg19_137_o1 (dsDNA)
DNA 1: GCCTCACGTGTTTCCTGGTAGAAATGCAGAGTACAAGCGATTGACAGCGTAGAATGAAGG
DNA 2: CCTTCATTCTACGCTGTCAATCGCTTGTACTCTGCATTTCTACCAGGAAACACGTGAGGC
B6: NRC3_random_hg19_316_o1 (dsDNA)
DNA 1: GCCAAAGACAGCTTTGCAAGGCCACTTCTGTTTGCTGCGATTGACAGCGTAGAATGAAGG
DNA 2: CCTTCATTCTACGCTGTCAATCGCAGCAAACAGAAGTGGCCTTGCAAAGCTGTCTTTGGC
B7: NRC3_wobSeed21_DR0_T11A_o1 (dsDNA)
DNA 1: GCCGTCAAAGATCAAGGTAACGTAACAGAAAGCAGCGCGATTGACAGCGTAGAATGAAGG
DNA 2: CCTTCATTCTACGCTGTCAATCGCGCTGCTTTCTGTTACGTTACCTTGATCTTTGACGGC
B8: NRC3_random_hg19_15_o1 (dsDNA)
DNA 1: GCGTTGGTCAGCTGGTCTCGAACTCCTGACCTCAAGGCGATTGACAGCGTAGAATGAAGG
DNA 2: CCTTCATTCTACGCTGTCAATCGCCTTGAGGTCAGGAGTTCGAGACCAGCTGACCAACGC
B9: NRC3_wobSeed59_DR2_o1 (dsDNA)
DNA 1: GCTCTATTAGTTGATTAGGGCAACCGAAACAGCGGAGCGATTGACAGCGTAGAATGAAGG
DNA 2: CCTTCATTCTACGCTGTCAATCGCTCCGCTGTTTCGGTTGCCCTAATCAACTAATAGAGC
B10: NRC3_wobSeed136_DR5_T12G_o1 (dsDNA)
DNA 1: GCTAGCCTAGGGCATTCAGGGGCCAGTATAGAAAGCGCGATTGACAGCGTAGAATGAAGG
DNA 2: CCTTCATTCTACGCTGTCAATCGCGCTTTCTATACTGGCCCCTGAATGCCCTAGGCTAGC
B11: NRC3_random_hg19_395_o1 (dsDNA)
DNA 1: GCGTACAATTGCCCTCTTAGCAGAGTTCTGGTGCATGCGATTGACAGCGTAGAATGAAGG
DNA 2: CCTTCATTCTACGCTGTCAATCGCATGCACCAGAACTCTGCTAAGAGGGCAATTGTACGC
B12: NRC3_random_hg19_232_o1 (dsDNA)
DNA 1: GCTTAGCAGGAACTGAGAAGTCACACTCAAGAGTTAGCGATTGACAGCGTAGAATGAAGG
DNA 2: CCTTCATTCTACGCTGTCAATCGCTAACTCTTGAGTGTGACTTCTCAGTTCCTGCTAAGC
B13: NRC3_wobSeed122_DR5_G21T_o1 (dsDNA)
DNA 1: GCGCTAGTTGGTCAGTAAAATGTCACACACCGGTCGGCGATTGACAGCGTAGAATGAAGG
DNA 2: CCTTCATTCTACGCTGTCAATCGCCGACCGGTGTGTGACATTTTACTGACCAACTAGCGC
B14: NRC3_random_hg19_210_o1 (dsDNA)
DNA 1: GCATCATTTGCTCTGGGTGAAGCCAGCTACCATGTTGCGATTGACAGCGTAGAATGAAGG
DNA 2: CCTTCATTCTACGCTGTCAATCGCAACATGGTAGCTGGCTTCACCCAGAGCAAATGATGC
B15: NRC3_random_hg19_377_o1 (dsDNA)
DNA 1: GCTTTAGAAGAAAGGTTTCATTACTGAGAGCAGCCAGCGATTGACAGCGTAGAATGAAGG
DNA 2: CCTTCATTCTACGCTGTCAATCGCTGGCTGCTCTCAGTAATGAAACCTTTCTTCTAAAGC
B16: NRC3_wobSeed93_DR3_T12G_o1 (dsDNA)
DNA 1: GCAGTCAAAGTGCATCTAGGTAACGTAAGATATGCTGCGATTGACAGCGTAGAATGAAGG
DNA 2: CCTTCATTCTACGCTGTCAATCGCAGCATATCTTACGTTACCTAGATGCACTTTGACTGC
B17: NRC3_wobSeed67_DR2_o1 (dsDNA)
DNA 1: GCCCAGACAGGTGAGAAGGTAACTCAGCCTCGATTAGCGATTGACAGCGTAGAATGAAGG
DNA 2: CCTTCATTCTACGCTGTCAATCGCTAATCGAGGCTGAGTTACCTTCTCACCTGTCTGGGC
B18: NRC3_wobSeed109_DR4_A8G_o1 (dsDNA)
DNA 1: GCCGTCCGAGGTCATAGGAGGTCAGTGAAGACAGATGCGATTGACAGCGTAGAATGAAGG
DNA 2: CCTTCATTCTACGCTGTCAATCGCATCTGTCTTCACTGACCTCCTATGACCTCGGACGGC
B19: NRC3_random_hg19_488_o1 (dsDNA)
DNA 1: GCGGTTGCAGTGAGCTGAGATCACACCACTGCACTCGCGATTGACAGCGTAGAATGAAGG
DNA 2: CCTTCATTCTACGCTGTCAATCGCGAGTGCAGTGGTGTGATCTCAGCTCACTGCAACCGC
B20: NRC3_random_hg19_361_o1 (dsDNA)
DNA 1: GCAAACTGGGAGGTGGAGGTTGTAGTAAGCCAAGATGCGATTGACAGCGTAGAATGAAGG
DNA 2: CCTTCATTCTACGCTGTCAATCGCATCTTGGCTTACTACAACCTCCACCTCCCAGTTTGC
B21: NRC3_random_hg19_36_o1 (dsDNA)
DNA 1: GCCAGGCAGTTTGCTTGAGCTCAGGAGTTCAAGACTGCGATTGACAGCGTAGAATGAAGG
DNA 2: CCTTCATTCTACGCTGTCAATCGCAGTCTTGAACTCCTGAGCTCAAGCAAACTGCCTGGC
B22: NRC3_random_hg19_467_o1 (dsDNA)
DNA 1: GCGAAACTGCTGCAAAGGCCTACTGAAGCCTGACTGGCGATTGACAGCGTAGAATGAAGG
DNA 2: CCTTCATTCTACGCTGTCAATCGCCAGTCAGGCTTCAGTAGGCCTTTGCAGCAGTTTCGC
B23: NRC3_wobSeed88_DR3_G10A_o1 (dsDNA)
DNA 1: GCTAGCCTAAGTCATGCGGGCCAGTATAGTGTCGGCGCGATTGACAGCGTAGAATGAAGG
DNA 2: CCTTCATTCTACGCTGTCAATCGCGCCGACACTATACTGGCCCGCATGACTTAGGCTAGC
B24: NRC3_wobSeed63_DR2_A14G_o1 (dsDNA)
DNA 1: GCCGAACTAGGTCGCCAGGACAGTGAAGAGGTTGGAGCGATTGACAGCGTAGAATGAAGG
DNA 2: CCTTCATTCTACGCTGTCAATCGCTCCAACCTCTTCACTGTCCTGGCGACCTAGTTCGGC
B25: NRC3_wobSeed13_DR0_G21A_o1 (dsDNA)
DNA 1: GCCGTCCAAGGTCAAGGTCAATGAAAGAGACTCGAAGCGATTGACAGCGTAGAATGAAGG
DNA 2: CCTTCATTCTACGCTGTCAATCGCTTCGAGTCTCTTTCATTGACCTTGACCTTGGACGGC
B26: NRC3_random_hg19_345_o1 (dsDNA)
DNA 1: GCGCAGTGGGTGATGATGTCACTGGTTAACGTGGCTGCGATTGACAGCGTAGAATGAAGG
DNA 2: CCTTCATTCTACGCTGTCAATCGCAGCCACGTTAACCAGTGACATCATCACCCACTGCGC
B27: NRC3_random_hg19_144_o1 (dsDNA)
DNA 1: GCCAGTGCTGGCGTCGTAGTGCTTGCCATAACAGAGGCGATTGACAGCGTAGAATGAAGG
DNA 2: CCTTCATTCTACGCTGTCAATCGCCTCTGTTATGGCAAGCACTACGACGCCAGCACTGGC
B28: NRC3_random_hg19_87_o1 (dsDNA)
DNA 1: GCGACTGCTTGCATCAGTCAAGGTTTGGGCAGTGAGGCGATTGACAGCGTAGAATGAAGG
DNA 2: CCTTCATTCTACGCTGTCAATCGCCTCACTGCCCAAACCTTGACTGATGCAAGCAGTCGC
B29: NRC3_random_hg19_245_o1 (dsDNA)
DNA 1: GCATGTTCCTTTACCCTAGCTGCAGTGGGTATCCACGCGATTGACAGCGTAGAATGAAGG
DNA 2: CCTTCATTCTACGCTGTCAATCGCGTGGATACCCACTGCAGCTAGGGTAAAGGAACATGC
B30: NRC3_random_hg19_475_o1 (dsDNA)
DNA 1: GCATGAAAGTTTAGTATGTGTAGGGTAGTGCTTCATGCGATTGACAGCGTAGAATGAAGG
DNA 2: CCTTCATTCTACGCTGTCAATCGCATGAAGCACTACCCTACACATACTAAACTTTCATGC
B31: NRC3_random_hg19_296_o1 (dsDNA)
DNA 1: GCGGCCTATGGCTCCAGAATGCTAATGCTACTCTGCGCGATTGACAGCGTAGAATGAAGG
DNA 2: CCTTCATTCTACGCTGTCAATCGCGCAGAGTAGCATTAGCATTCTGGAGCCATAGGCCGC

Chain of FXR:RXRa (Q96RI1 whole entry, chain 1 of 2): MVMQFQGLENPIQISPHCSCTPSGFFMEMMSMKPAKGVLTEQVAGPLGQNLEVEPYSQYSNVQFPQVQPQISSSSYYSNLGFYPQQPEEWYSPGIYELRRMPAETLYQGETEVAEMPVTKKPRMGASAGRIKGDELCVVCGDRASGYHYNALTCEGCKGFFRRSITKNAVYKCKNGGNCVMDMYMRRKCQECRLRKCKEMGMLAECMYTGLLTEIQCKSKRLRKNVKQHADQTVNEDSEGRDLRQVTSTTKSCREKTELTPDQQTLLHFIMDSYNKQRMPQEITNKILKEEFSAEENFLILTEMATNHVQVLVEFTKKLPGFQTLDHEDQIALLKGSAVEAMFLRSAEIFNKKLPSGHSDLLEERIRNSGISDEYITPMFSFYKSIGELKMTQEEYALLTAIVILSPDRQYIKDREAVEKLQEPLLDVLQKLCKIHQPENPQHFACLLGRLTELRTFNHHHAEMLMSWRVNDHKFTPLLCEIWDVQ
Chain of FXR:RXRa (P19793 whole entry, chain 2 of 2): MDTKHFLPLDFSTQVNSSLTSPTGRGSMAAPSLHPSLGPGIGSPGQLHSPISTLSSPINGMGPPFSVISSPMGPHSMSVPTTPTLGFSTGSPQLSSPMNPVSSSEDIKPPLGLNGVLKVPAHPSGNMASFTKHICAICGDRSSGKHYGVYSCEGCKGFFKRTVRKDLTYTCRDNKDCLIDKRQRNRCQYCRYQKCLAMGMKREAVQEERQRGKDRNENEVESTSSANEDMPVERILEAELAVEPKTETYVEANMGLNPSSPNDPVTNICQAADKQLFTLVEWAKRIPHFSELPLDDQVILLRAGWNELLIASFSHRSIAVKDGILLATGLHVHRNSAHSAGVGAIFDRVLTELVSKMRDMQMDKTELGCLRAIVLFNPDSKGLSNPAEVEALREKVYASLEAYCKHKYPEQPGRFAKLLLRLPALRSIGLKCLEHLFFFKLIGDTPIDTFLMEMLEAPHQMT

The target of the data set is FXR:RXRa (Homo sapiens, UniProt Q96RI1;P19793 full;full). The data set can be described thus: no ligand; PBM; 270 nM : 90 nM RXRa; PBS pH 7.4, 2% milk, 0.02% Triton X-100, 1 mM DTT, BSA, 0.4 mg/ml salmon testes DNA. Particulars: tags: His kept;His cleaved; copies: 1;1; label: surface-attached array probe. The method in brief:
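Binding z-scores were set against random background probes. The data came from custom Agilent 4×180K protein-binding microarrays carrying double-stranded probes with 34-nt variable regions, incubated 1 h with ligand-free nuclear receptor dimers. Partner-specific antibodies detected binding, and scanned fluorescence was regression-normalized.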
B1: the binding signal was 0.03 PBM z-score against 500 random probes. On to B2, for which the binding signal was -0.01 PBM z-score against 500 random probes.

On to B3, for which the binding signal is 0.13 PBM z-score against 500 random probes. Turning to B4, the binding signal is -0.04 PBM z-score against 500 random probes. Turning to B5, the binding signal was 0.08 PBM z-score against 500 random probes. With B6 the figure was -0.15 PBM z-score against 500 random probes; with B7, 0.1 PBM z-score against 500 random probes. For the molecule B8, the binding signal was 0.16 PBM z-score against 500 random probes. For the molecule B9, the binding signal is 0.48 PBM z-score against 500 random probes.

As to B10, the binding signal is -0.08 PBM z-score against 500 random probes. For the molecule B11, the binding signal is 0.09 PBM z-score against 500 random probes.

Turning to B12, the binding signal was -0.34 PBM z-score against 500 random probes. For the molecule B13, the binding signal was 0.1 PBM z-score against 500 random probes. For B14, the binding signal was -0.02 PBM z-score against 500 random probes.

Regarding B15, the binding signal is -0.61 PBM z-score against 500 random probes. Take B16: the binding signal was 0.12 PBM z-score against 500 random probes. In the case of B17, the binding signal was 0.47 PBM z-score against 500 random probes.

With B18, the binding signal is 8.19 PBM z-score against 500 random probes. B19: the binding signal was -0.28 PBM z-score against 500 random probes. As for B20, the binding signal is 0.3 PBM z-score against 500 random probes. With B21 the figure was -0.62 PBM z-score against 500 random probes. Under B22 stands -0.59 PBM z-score against 500 random probes. As to B23, the binding signal was -0.37 PBM z-score against 500 random probes. In the case of B24, the binding signal was 0.16 PBM z-score against 500 random probes. B25: the binding signal was 8.19 PBM z-score against 500 random probes. For the molecule B26, the binding signal is -0.31 PBM z-score against 500 random probes. With B27, the binding signal is -0.87 PBM z-score against 500 random probes. Turning to B28, the binding signal was -0.74 PBM z-score against 500 random probes. With B29 the figure was 0.41 PBM z-score against 500 random probes. Regarding B30, the binding signal was 0.26 PBM z-score against 500 random probes.

Consider B31, for which the binding signal was -0.48 PBM z-score against 500 random probes.
